The record followed here is the nanobody polyreactivity screen of Harvey et al. (2022).

The data set is described as follows: yeast display, Sf9 membrane polyspecificity reagent, FACS + sequencing; frameworks hold sequencing errors. The method, boiled down: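 A nanobody's polyreactivity label depends on the gate it was sorted from. Yeast display cells were stained with 10% biotinylated, detergent-solubilized Sf9 membrane reagent for 1 hour at 4 °C, enriched on streptavidin microbeads and sorted by FACS. The low and high (top ~1%) gates were set on anti-HA fluorescence for expression and streptavidin fluorescence for reagent binding.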
As to “KVQLVESRGGLVQAGGSLRLSCAASGIIFYTYAMGWNRQAPGKERELVASISWDVDSTNYADSVKGRFTISRDNAKNTVYLQMNSLKPEYTAVYYCAVDYTFDSYWYWVDYYEYGYWGQGTQVTVSS”, the “polyreactivity (PSR sort gate)” value is reported as “high polyreactivity”. In the case of “KVQLVETGGGLVQAGGSLRLSCAASGSILIYNAMGWYRQAPGKERELVAGISRRGASTYYADSVKGRFTNSRDNAKKTVYLQMKSLKPEDTAVYYCAALGKYIVAWSGDFWGQGTQVTVSS”, the “polyreactivity (PSR sort gate)” value is reported as “low polyreactivity”. The entry for “LGQVVESGGGLVQAGGSLRLSCAASGRIFHRNTMGWYRQAPGKEWELVAAISGSTGRTYYADSVKGRFPISRDNAKTTVYLQMNSLKPEDTAVYYCAKVYRRSGSVARYDYGGQGTQVTVSS” is “high polyreactivity”; for “LLMGWYRQAPGEERELVAGINDGASTNYADSVKGRFTISRDNARNTVYLKMNSLKPGDTAVYYCAVWQPVLIWFYYWGQGTQVTVSS” it is “high polyreactivity”. The entry for “LVLLVESGGGLVQAGGSLRLSCAASGSSLDWYAMGWYRQAPGNVRELVASLSYSGGTTYYADSVTVRFTISRDNAKNTVYLQMISLKPDDTAVDYCATDLLNNVDYDYWGQGTQVTVSS” is “low polyreactivity”; for “LVQLVESGGGLVQAGGSLRLICAASGSIFSGYAMGWYRQAPGNERELVAAITRSGGRTYYADSVKGRFTISRDNAKNTVYLQMNSLKPEDTAGYYCATLPRYYGYWGQGTQVTVSS” it is “high polyreactivity”; for “LVQLVESGGGLVQAGGSLRLSCAASGITLARNAMGWYRQAPGKEWELVAAITWSGGTTYYADSVKGRFTISRDNAKNTVYLQMNSLKPEDTAVYYCAASAKLHYYRTYRYNYWGQGTQVTVSS” it is “high polyreactivity”. The entry for “LVQLVESGGGLVQAGGSLRLSCAASGSTFANNAMGWYRQAPGKERELVASITTDGSTNYADSVKGRFTISRDNAKNTVYLQMNSLKPEDTAVYYCAAAYQKSPITPKMDYWGQGTQVTVSS” is “low polyreactivity”; for “LVQLVESGGGLVQAGGSLRLSCAASGSTFDYYAMGWYRQAPGQERELVAAISGSGDRTYYADSVKGRFTISRDNAKNTVYLQMNSLKPEDTAVYYCAKYGRTRFYYWGQGTQVTVSS” it is “high polyreactivity”. Take “LVQLVESGGRLVQAGGSLRLSCAASGRTFPAYTMGWYRQSPGKERDLVAANYSSGGTTYYADSVKGRFTISRDNAKNTVYLQIYSINPEDNAVYYCNAYLGYYYYYLDALIGYDYWGQGTQVTVSS”: the “polyreactivity (PSR sort gate)” value is “low polyreactivity”.

For the sequence “PLQLVESGGGLVQAGGSLRLSCAASGIIFGRYTMGWYRQAPGKERELFAAITSSGITYYADSVNGRFTISRDNAKNTVYLQLNSLKPEDTAVYYCNADYSIPGYYWPYDYWGLGTQVTVSS”, the “polyreactivity (PSR sort gate)” value is “low polyreactivity”. Take “PVQLQESGGGLVQAGGSLRLSCAESGNIFDADIMGWYRQAPGKERELVDCIADGGSTNYADSVKGSFTISRDNAKITVYLQMNSLKPEDTAVYYCAAIAYPDIPTCFDYDSDYFFRGQGTQVTVSS”: the “polyreactivity (PSR sort gate)” value is recorded as “low polyreactivity”. As to “PVQLVESGGGIVQAGGSLRLSCAASGSTFVGKAMGWSRQAPGKQREMFAAISRTGGSPYYADSVKGRFSISRDNAKNSVYLQMISLKPEDTAVYYCAEVYGGPYGELDYWGHGTQVTVSS”, the “polyreactivity (PSR sort gate)” value is “high polyreactivity”.

For the sequence “PVQLVESGGGLVQAGASLRLSCAASGNTFIENAKGSYRQAPGKERELVADIDTGGSTYYADSVKGRFTISRDNAKNTVYLQMNRLKPEDTADYYCTAVGLYLYRYKFGYLGKIGPGYDYWGQGTQVTVSS”, the “polyreactivity (PSR sort gate)” value is “low polyreactivity”. As to “PVQLVESGGGLVQAGGILRLSCAACGRIFQRNAMGWYRQAPGKERELVATITSRGGSTYYADSVKGRFTISRDNAKNTVYLQMNSLKPEDTAVYYCAADPRRYRGFGYVYGGFYYWGQGTQVTVSS”, the “polyreactivity (PSR sort gate)” value is listed as “low polyreactivity”.

Turning to “PVQLVESGGGLVQAGGRLRLSCAASGIIFSDYAMGWYRQAPGKERELVAAIPGGGSTYYADSVKGRFTISRDNAKNTVYLQMNSLKPEDTAVYYCNADWARLWIRSTEVDYWGQGTQVTVSS”, the “polyreactivity (PSR sort gate)” value is on record as “low polyreactivity”. “PVQLVESGGGLVQAGGSHRVICAASGRIFYVDAMGWSTQAPGKERELVADMSRGGSTNYADSVKGRFTISRDNAKKTVYLQMNRLKPEDTSVYYCNTDGLWSAEYDYWGQGTQVTVSS”: the “polyreactivity (PSR sort gate)” value was “low polyreactivity”. The entry for “PVQLVESGGGLVQAGGSLLLSCAASGRTFIYYAMGWYRQAPGKERELVAGISRHGGRTYYADSVKGRFTISRDNAKNTVYLQMNSLKPEDTAVYYCNAYPPSGHDYWGQGTQVTVSS” is “high polyreactivity”; for “PVQLVESGGGLVQAGGSLRLICAASALTFPPYSMGWYRQAPAKERELVAAISRNAGNTYYADSVKGRFTISRDTAKNTVYLQMNSLKPEDTAVYYCAAKRGTQGMYYWGQGTQVTVSS” it is “high polyreactivity”. The entry for “PVQLVESGGGLVQAGGSLRLSCAASGSIFCYYTMGWYRQAPGKERELVASIDYSGVSTYYADSVKGRFTISRDNAKNTVYLQMNSLKPEDTAVYDCNAVYYSWDGSTWEYGYWGQGTQVTVSS” is “low polyreactivity”; for “PVQLVESGGGLVQAGGSLRLSCAASGSIFDLNAMGWYRQAPGKERELVAAISSGGGTYYADSVKGRFTISLDNAKNTVYLQMNSLKPEDTAVYSCNRVTRGSYNYWGQGTQVTVSS” it is “high polyreactivity”; for “PVQLVESGGGLVQAGGSLRLSCAASGSTFRRNVMGWYRQAPGKEREFVAAISYRTGSTYYADSVKGRFTISRDNAKNTVYLQMNSLKPEDTAVYYCAASSQWVGYYYWGQGTQVTVSS” it is “high polyreactivity”. The same measure for “PVQLVESGGGLVQAGGSLRLSCAASGSTFTSNAMGWYRQAPGKERELVAAIDRNGGRTYYADSVNGRFTISRDNAKNTVYLQMNSMKPEDTEVYYCAVLSKYRRTFGSWGQGTLVTVSS”: “high polyreactivity”. With “PVQLVESGGGLVQAGGSLRLSCAGSGFTFYTNTMGWYIQAPGKERELVAAISSGGSTYADSVKVRYTISRDNAKNTVDLQMNSLKPEDTAVYYCARDFYYSLSGFDYWGQGTQVTVSS”, the “polyreactivity (PSR sort gate)” value is “low polyreactivity”. For the sequence “PVQLVESGGGLVQAGGSLRLSWAASGRIFVVNAMGWYRQAPGKEREFLASITRGASTYADSVKGRFTISRDNAKNTVYLQMNSLKPEDTAVYYCSDAKRPQVVRYDWTKLEYWGQGTQVTVSS”, the “polyreactivity (PSR sort gate)” value is given as “high polyreactivity”. Turning to “PVQLVESGGVLVQAGGSLRLSCAASGITFWDKAMGWYRQPPGKERELVAAITSGNTDYADSVKGRFTISRDNAKNSVYLPMTSLIPEDTAVYYCGAELLVGGGVTVDYWGQGTQVTVSS”, the “polyreactivity (PSR sort gate)” value is reported as “low polyreactivity”. On to “QAELVESGGGLVQAGGSLRLSCAASGLTFRAYAMGWYRQAPGKERELVAAISWNGGSTYYADSVKGRFTISRDNAKNTVYLQMNSLKPEDTAVYYCNAYDYQYFYGYEYDYWGQGTQVTVSS”, for which the “polyreactivity (PSR sort gate)” value was “high polyreactivity”. The entry for “QAQLKESGGSLVQAGGGLRLSCAASGYNSVGSVMGWYRQAPSKERELVASIDQGANTNYADSVKGRFTISRDNAKNNVYLQMNSLKPEDTAVYYCATETTYFLNYWGQGTQVTVSS” is “low polyreactivity”; for “QAQLQESGGSLVQAGGGLRLSCAASGYISVGSVMGWYRQAPSKERELVASIDQGANTNYADSVKGRFTISRDNAKNYVYLQMNSLKPEDTAVYYCATETTYILNYWGQGTQVTVSS” it is “low polyreactivity”; for “QAQLQESGGSLVQAGGGLRLSCAASGYISVGSVMGWYRQAPSKERELVASIDQGANTNYADSVKGRFTISRNNAKNNVYLQMNSLKTEDTAVYYCATETTYILNYCGQGTQVTVSS” it is “low polyreactivity”. Turning to “QAQLVESGGGLVQAGGSLRLSCAASGRTFYYYTMGWYRQAPGKERELVAAISYSGGSTSYADSVKGRFTISRDNAKNTVYLQMNSLKPEDTAVYYCNARYKYYTQRRYHYDYWGQGTQVTVSS”, the “polyreactivity (PSR sort gate)” value is reported as “high polyreactivity”.

“QAQLVESGGGLVQAGGSLRLSCAASGRTLAWYALGWYRQAPGKERELVADISSGGSTYYADSVKGRFTISRDNAKHTVYVQMNSLKPEDTAVYYCAARWRSWRYKDDYWGQGTQVTVSS”: the “polyreactivity (PSR sort gate)” value was “high polyreactivity”.

Turning to “QAQLVESGGGLVQAGGSLRLSCAASGRTSYRYVMGWYIQAPGKERELVAAISRGGRTYYADSVKGSFTISRDNAKYTVYLQMNSLNPEVTAVYYCNAAFGVYVATGDSFPRHKKFGFWGQGTQVTVSS”, the “polyreactivity (PSR sort gate)” value is on record as “high polyreactivity”. Take “QAQLVESGGGLVQAGGSLRLSSAATGIIFGRYAMGWYRQAPGKERELVAAISTSGGSTYYADSVKGRFTISRDNAKNTVYLQMNSLKAEDTAVYYCAVDLFYKYDWGQGTQVTVSS”: the “polyreactivity (PSR sort gate)” value is given as “high polyreactivity”. The same measure for “QDHLVESGGGIVQAGGSLRLSCAASGRTFHLNAIGWYRQAPGKARELVAAITNSGGRTSNADSVKGRFTISRDNAKNTVYLQMNSLKPQVTEVFFCNVEVTYSSGKYDYWGQGTQVTVSS”: “low polyreactivity”; for “QDHLVESGGGLVQAGGSLRLSCAASGRIFDPYAMGWYRQAPGKERELVARITWRGGRTYYADSVKGRFTISLDNAKNTVYLQMNSLKPEDTAVYYCNAVFYYRYYGAYDYWGQGTQVTVSS”: “high polyreactivity”; for “QDHLVESGGGLVQAGGSLRLSCAASGRTVGIYAMGWYRQAPGKVRELVASISWSGGRTYYADSVKGRFTISRENAKNTVYLQMNSLKPEDTAVYYCAAYGVYYPRSWLYFDWYGYCGQGTQVTVSS”: “high polyreactivity”. The entry for “QDHLVESGGGLVQAGGSLRLSCAASGSTFYFYAMGWYREAPGKERELVAVISSGGRTYYADSVKGRFTISRDNAKNSVYLQMNSLKPVDTGVYYGAASWPSSLTFYYWGHGTQVTVSS” is “low polyreactivity”; for “QDHLVESGGGLVQAGGSLRLSCAAYGRTFESYAMGRYRHAPGKERELVAAISYSGGSTYYADSVKGRFTISRDNAKNTVYLQMNSLKPEDTAVYYCAVRWRYKYDYWGQGTQVTVSS” it is “high polyreactivity”. The same measure for “QDHLVESGGGLVQAGGSLRLSCAPSGSIFSYNSMGWYRQAPGKERELVAGISSDGSTNYADSVKGRFSISRDNAKNTVYLQMNSLKPEDTAVYYCAADEIVWQADLWGYGIYDYWGHGTQVTVSS”: “high polyreactivity”.

Turning to “QDQHVESAGGLVQAGGSLRLSCAASGRIFTINARGWYRQAPGKERELVAGISGRSGGTYYADSVKGRFTISRDNAKNTVYLEMNSLKPEDTAVYYCAGDDWYSTYFEFNYWGQGTQVTVSS”, the “polyreactivity (PSR sort gate)” value is “low polyreactivity”.
